# According to the nanobody polyreactivity screen of Harvey et al. (2022):
# Experiment: yeast display, Sf9 membrane polyspecificity reagent, FACS + sequencing; frameworks hold sequencing errors
# Method in brief: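 Using colony PCR, genes from sorted yeast display clones were amplified, then sequenced on MiSeq at 2 × 250 and filtered by CDR length. The clones had been stained with 10% biotinylated, detergent-solubilized Sf9 membrane reagent for 1 hour at 4 °C and sorted by FACS into low and high (top ~1%) gates on anti-HA and streptavidin fluorescence. Polyreactivity labels come from the gate of origin.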
row,Sequence,polyreactivity (PSR sort gate)
1,QVQLVESGGGLVQAGGSLRLSCAASGSIYVNTMGWYRQAPGKEREFVAAITRRGGSTYYADSVKGRFTISRDNAKNTVYLQMNSLKPEDTAVYYCNADNRYSAHDYWGQGTQVTVSS,high polyreactivity
2,QVQLEESGGGLVQAGGSLRLSCAASGSTFFIYAMGWYRQAPGKERELVAVIRNIDVRTYYADSVKGRFTISRDNAKNTVYLQMNSLKPEDTAVYYCAADELLDESVDMYYWGQGTQVTVSS,low polyreactivity
3,QVQLVESGGRLVQAGGSLRLICAASGLIFYHNAMGWYRQAPGKERELVAAITASGGSTYYADSVKGRFTISRDNAKNTVYLQMNSLKPEDTAVYSCSADGPLDSDLDYWGQGTQVTVSS,low polyreactivity
4,HVQLVESGGGLVQAGGSLRLSCAASGSIFAKNAMGWYREAPGKERELVAGIDFSGGSTYYADSVKGRFTISRDNAKNTVYLQMNSLKPEDTAVYYCAADWAYKYELDYWGQGTQVTVSS,low polyreactivity
5,QDQLVESGGCLVQAGGSLRLSCAASGSTFPIYAMGWYRQEPGKERELVAPITWNGGRTYYADSVKGRFTISRDNAKNTVYLQMNSLKPEDTAVYYCNALYYHNLEGNYWGQGTQVTVSS,high polyreactivity
6,QVQLVESGGGLVQAGGSLRLSCAASGSTFPWNAMGWYRQAPGKERELVAAIRTGGGRTYYADSVKGRFTISRDNAKNTVYLQMNSLKPEDTAVYYCNAYQSSGRYRNSYGYWGQGTQVTVSS,high polyreactivity
7,QVQLVESGGGLGQAGGSLRLSCAASGFTFGNYAMGWYRQAPGKERELVAVISYSTGSTNYADSVKGRFTISRDNAKNTVYLQMNSLKPEDTAVYYCAKRYRSYYQGYGYWGQGTQVTVSS,high polyreactivity
8,QVQLVESGGGLVQAGGSLRLSCAASGSTFWLYAIGWYRQAPGTERELVAAIRSGDRTNYADSVKGRFTISRDNAKKTVYLEMNSLKPEDTAVYYCAAVAYLNWTPQYYWGQGTQVTVSS,low polyreactivity
9,QVQLVESGGGLVQAGGSLRLSCAASGSTLSANAMGWYRQAPGKERELVAAISWNGGSTYYADSVKGRFTISRDNAKNTVYLQMNSLKPEDTAVYYCAAEYIVTYEYWYFGYDYWGQGTQVTVSS,low polyreactivity
10,QVQLVESGGGLVQAGGSLRLSCAASGFIFARYAMGWYRQAPGKERELVATISYTGGRRYYADSVKGRFTISRDHANNTVYLQINSLKPEDTAVYYVNAVYSYDRQRHEYWGQGTQVTVSS,high polyreactivity
11,QVQLVESGGGLVQAGGSLRLSCAASGSTFPSYAMGWYRQAPGKERELVAAINSGGGTNYADSVKGRFTISRDNAKNTVYLQMNSLKPEDTAVYYCAKSRYDYTKTEGGYWGQGSQVTVSS,low polyreactivity
12,QVQLVESGGGLVQAGGSLRLSCAASGITYRYAMGCYRQAPGKERELVAAITSSGASTYYADSVKGRFTISRDNAKNTVYLQMNSLKPEDTAVYYCATPLRKVYGGYEYWGQGTQVTVSS,low polyreactivity
13,QVQLHESGGGLVQAGGSLRQSCAASGTISYAGPMGWYRKAPGKEREFVAGIGVGSNTNYADSVKGRYTIIRDNAKNTVYLQMNSLKPEDTAVNYCAVGGYAPLGRPYWGLGTQVTVSS,low polyreactivity
14,QVQLVESGGGLVQAGGSLRLSCAASGSILGDYGMGWYRQAPGKERELVAAITWNGDSTYYADSVKGRFTISRDNAKNTVYLQMNSLKPEDTAVYYCAADLQDYKYYPWYGYWGQGTQVTVSS,low polyreactivity
15,QVQLVESAGGLVQAGGSLRYSCAASGRTIYRYAMGWYRQAPGKERELVAAINRSTGRTYYADSVKGRFTISRDNAKNTVYLQMTSLNPEDTAVYYCARSDKKYPQASSREDYGYWGQGTQVTVSS,high polyreactivity
16,QVQLVESGGGLVQAGGSLRLSCAASGRINLYNAMGWYRQAPRKEMELVAVISYRGGSTYYADSVKGRFTISRENAKNTVYLQMNSLKPDDTAVYYCNKDKSYSGTRYDYWGQGTQVTVSS,high polyreactivity
17,QVQLVESGGGLVQAGGSLRLICAASGRTFSSNAMGWYRPAPGNERELVAAISTSGGRTYYADSVKGRCTISRDNAKNTVYLQMNSLKPEDTAVYYGAAEYVGTGTPDDYAYWGQGTQVTVSS,high polyreactivity
